Tests used:
[1] = target: T1, MBP-GLK1 fusion protein (Golden2-like transcription factor GLK1, full length) (Arabidopsis thaliana, UniProt Q9SIV3 1-420); assay: pull-down
T1 sequence (looked up): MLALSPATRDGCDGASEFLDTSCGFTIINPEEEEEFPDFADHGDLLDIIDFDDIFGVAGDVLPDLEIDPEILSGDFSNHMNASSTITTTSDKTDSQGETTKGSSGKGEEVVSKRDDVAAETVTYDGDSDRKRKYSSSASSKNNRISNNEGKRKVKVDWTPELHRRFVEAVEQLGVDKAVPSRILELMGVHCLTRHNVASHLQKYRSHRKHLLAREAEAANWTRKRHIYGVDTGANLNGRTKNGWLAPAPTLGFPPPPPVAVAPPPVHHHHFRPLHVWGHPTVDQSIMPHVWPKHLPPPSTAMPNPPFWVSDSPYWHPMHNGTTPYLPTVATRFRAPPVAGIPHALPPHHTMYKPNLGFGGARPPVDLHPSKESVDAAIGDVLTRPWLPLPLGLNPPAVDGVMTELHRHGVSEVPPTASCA

[2] = target: T2, MBP-GLK2 fusion protein (Golden2-like transcription factor GLK2, full length) (Arabidopsis thaliana, UniProt Q9FFH0 1-386); assay: pull-down
T2 sequence (looked up): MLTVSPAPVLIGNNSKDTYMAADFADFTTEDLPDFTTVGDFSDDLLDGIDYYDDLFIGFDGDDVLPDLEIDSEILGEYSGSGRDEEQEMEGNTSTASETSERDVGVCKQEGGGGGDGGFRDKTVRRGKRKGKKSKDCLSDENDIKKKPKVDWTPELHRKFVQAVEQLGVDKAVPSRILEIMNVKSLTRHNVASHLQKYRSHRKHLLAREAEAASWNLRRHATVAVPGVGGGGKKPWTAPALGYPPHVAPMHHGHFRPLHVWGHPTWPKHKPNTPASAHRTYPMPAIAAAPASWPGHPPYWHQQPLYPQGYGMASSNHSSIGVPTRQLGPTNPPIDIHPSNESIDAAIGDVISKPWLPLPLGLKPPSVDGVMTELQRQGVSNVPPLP

Binder | binding result [1] | binding result [2]
GST-GBF1 fusion protein (G-box Binding Factor 1, full length) (natural protein, Arabidopsis thaliana, UniProt P42774 1-315, looked up) MGTSEDKMPFKTTKPTSSAQEVPPTPYPDWQNSMQAYYGGGGTPNPFFPSPVGSPSPHPYMWGAQHHMMPPYGTPVPYPAMYPPGAVYAHPSMPMPPNSGPTNKEPAKDQASGKKSKGNSKKKAEGGDKALSGSGNDGASHSDESVTAGSSDENDENANQQEQGSIRKPSFGQMLADASSQSTTGEIQGSVPMKPVAPGTNLNIGMDLWSSQAGVPVKDERELKRQKRKQSNRESARRSRLRKQAECEQLQQRVESLSNENQSLRDELQRLSSECDKLKSENNSIQDELQRVLGAEAVANLEQNAAGSKDGEGTN | binds | binds
GST-GBF2 fusion protein (G-box Binding Factor 2, full length) (natural protein, Arabidopsis thaliana, UniProt P42775 1-360, looked up) MGSNEEGNPTNNSDKPSQAAAPEQSNVHVYHHDWAAMQAYYGPRVGIPQYYNSNLAPGHAPPPYMWASPSPMMAPYGAPYPPFCPPGGVYAHPGVQMGSQPQGPVSQSASGVTTPLTIDAPANSAGNSDHGFMKKLKEFDGLAMSISNNKVGSAEHSSSEHRSSQSSENDGSSNGSDGNTTGGEQSRRKRRQQRSPSTGERPSSQNSLPLRGENEKPDVTMGTPVMPTAMSFQNSAGMNGVPQPWNEKEVKREKRKQSNRESARRSRLRKQAETEQLSVKVDALVAENMSLRSKLGQLNNESEKLRLENEAILDQLKAQATGKTENLISRVDKNNSVSGSKTVQHQLLNASPITDPVAAS | binds | binds
GST-GBF3 fusion protein (G-box Binding Factor 3, full length) (natural protein, Arabidopsis thaliana, UniProt P42776 1-382, looked up) MGNSSEEPKPPTKSDKPSSPPVDQTNVHVYPDWAAMQAYYGPRVAMPPYYNSAMAASGHPPPPYMWNPQHMMSPYGAPYAAVYPHGGGVYAHPGIPMGSLPQGQKDPPLTTPGTLLSIDTPTKSTGNTDNGLMKKLKEFDGLAMSLGNGNPENGADEHKRSRNSSETDGSTDGSDGNTTGADEPKLKRSREGTPTKDGKQLVQASSFHSVSPSSGDTGVKLIQGSGAILSPGVSANSNPFMSQSLAMVPPETWLQNERELKRERRKQSNRESARRSRLRKQAETEELARKVEALTAENMALRSELNQLNEKSDKLRGANATLLDKLKCSEPEKRVPANMLSRVKNSGAGDKNKNQGDNDSNSTSKLHQLLDTKPRAKAVAAG | binds | binds

Source: publication doi:10.1101/2022.09.09.507346 (bioRxiv, 2022)
